Measurements from PMC6650902.

Target: TAF complex (TFIIDΔTBP) (S. cerevisiae) (UniProt P46677)

With “TATA-box binding protein (TBP), recombinant (from UniProt P13393 1-240) (natural protein)” as the substance, how does the topoisomerase I assay on pDrive/RPS5: linking number change (ΔLk) with TAFs and TBP mixed in equimolar amounts before the plasmid (TAF complex alone +1.91) read?
The topoisomerase I assay on pDrive/RPS5: linking number change (ΔLk) with TAFs and TBP mixed in equimolar amounts before the plasmid (TAF complex alone +1.91) was 0.48.
